{
  "source": "patent US20110300113A1",
  "about": "“Death Receptor CD95 Controls Neurogenesis of Adult Neural Stem Cells in Vivo and in Vitro” (DEUTSCHES KREBSFORSCHUNGSZENTRUM, priority 2006, published 2011)",
  "molecules": {"B1": {"name": "CD95L: the ligand for CD95 (APO-1/Fas) (protein, listed as Homo sapiens)", "chain": "MQQPFNYPYPQIYWVDSSASSPWAPPGTVLPCPTSVPRRPGQRRPPPPPPPPPLPPPPPPPPLPPLPLPPLKKRGNHSTGLCLLVMFFMVLVALVGLGLGMFQLFHLQKELAELRESTSQMHTASSLEKQIGHPSPPPEKKELRKVAHLTGKSNSRSMPLEWEDTYGIVLLSGVKYKKGGLVINETGLYFVYSKVYFRGQSCNNLPLSHKVYMRNSKYPQDLVMMEGKMMSYCTTGQMWARSSYLGAVFNLTSADHLYVNVSELSLVNFEESQTFFGLYKL", "modifications": "CHAIN (1)..(281) This feature is the amino acid sequence for CD95L protein. CD95L is a ligand for CD95. CD95 is APO-1/Fas and a member of the tumor necrosis factor receptor superfamily."}},
  "key": {"[1]": {"target": "T1, CD95 (Mus musculus, UniProt P25446)", "T1 construct": "pp60 and p85 association to CD95 increased at 1 minutes and 5 minutes after stimulation of NSCs with 1 U CD95L-T4; endogenous in cells; host or cells: mouse adult neural stem cells (C57BL6)", "T1 sequence (P25446 22-327)": "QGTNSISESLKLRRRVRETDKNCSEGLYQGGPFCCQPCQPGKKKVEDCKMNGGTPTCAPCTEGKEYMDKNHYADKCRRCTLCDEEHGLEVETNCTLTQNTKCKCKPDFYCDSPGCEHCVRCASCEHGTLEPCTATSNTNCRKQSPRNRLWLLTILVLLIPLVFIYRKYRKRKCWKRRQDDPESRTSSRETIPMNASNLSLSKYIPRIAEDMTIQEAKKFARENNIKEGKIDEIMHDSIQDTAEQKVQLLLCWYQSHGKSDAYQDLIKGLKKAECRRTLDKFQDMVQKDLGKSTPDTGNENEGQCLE", "experiment": "Immunoprecipitation of CD95 / phosphotyrosine from stimulated NSCs", "assay_type": "cell-based", "conditions": "NSCs or developing neurons", "experimental": "Immunoprecipitation. 2×10^7 cells were either treated with 1 activation unit (5-40 ng/ml depending on the batch of CD95L-T4) or 5000 ng/ml CD95L-T4 for 1 and 5 minutes (unless otherwise indicated) at 37° C. or left untreated, washed twice in PBS plus phosphatase inhibitors (NaF, NaN3, pNPP, NaPPi, β-Glycerolphosphate, 10 mM each and 2 mM orthovanadate), and subsequently lysed in buffer A (20 mM Tris/HCl, pH 7.5, 150 mM NaCl, 2 mM EDTA, 1 mM phenylmethylsulfonyl fluoride, protease inhibitor cocktail (Roche), 1% Triton X-100 (Serva, Heidelberg, Germany), 10% glycerol, and phosphatase inhibitors (NaF, NaN3, pNPP, NaPPi, 1′-Glycerolphosphate, 10 mM each and 2 mM orthovanadate) (stimulated condition) or lysed without treatment (unstimulated condition). Protein concentration was determined using BCA kit (Pierce). 1 mg of protein was immunoprecipitated overnight with either 5 μg anti-CD95 AB Jo2 or 5 μg anti-phospho tyrosine antibody (pTyr 4G10 (Upstate)) and 30 μl protein-A Sepharose. Beads were washed 5 times with 20 volumes of lysis buffer. The immunoprecipitates were mixed with 60 μl of Laemmli buffer and 30 μl were analyzed on either 15% or 7.5% SDS-PAGE. […]"}, "[2]": {"tested_on": "SVZ NSCs", "experiment": "β-III-tubulin expression in adult SVZ neural progenitor cells (flow cytometry)", "assay_type": "cell-based, mouse", "conditions": "SVZ progenitors, in the presence of growth factors", "text": "Lentiviral infections. SVZ NSCs were infected with the lentiviral vector pEIGW and pEIGW-GSK3βS9A at a multiplicity of infection (MOI) of 5. The plasmids were constructed by replacing the eGFP sequence between the EF1α promotor and the WPRE element in pWPTS-eGFP with the IRES-eGFP cassette form pIRES2-eGFP (Clontech, Germany). The recombinant lentiviral vector pEIGW-GSK3βS9A was constructed using pcDNA3 HA-GSK3βS9A. This vector encodes a constitutively active GSK3β mutant containing a serine-to-alanine substitution at residue 9 (GSK3βS9A). Expression of all transgenes was confirmed in infected cells by FACS analysis of GFP expression. The percentage of infected cells was 70-90%.\nsiRNA. […] 48 h later pp60 src knockdown was assessed by Western Blot. At the same time, cells were stimulated with CD95L-T4 and analysed after 48 h for β-III-tubulin positive cells.\nFor staining of intracellular markers, cells were harvested, fixed with 4% PFA for 10 min on ice, washed and permeabilized using 0.1% Saponin (Sigma-Aldrich) in PBS with 10% FCS (SAP). […] Cells were washed again three times with SAP and analysed. […] To quantify DNA fragmentation, cells detached with trypsin were centrifuged, washed and fixed with 70% ethanol at −20° C. for 1 h. […] After final washings, all samples were analysed using a FACS-Calibur (Becton Dickinson) and CellQuest Software (Becton Dickinson). […]"}, "[3]": {"tested_on": "NSCs", "experiment": "Apoptosis and caspase activity in NSCs", "assay_type": "cell-based, mouse", "experimental": "(§1) For staining of intracellular markers, cells were harvested, fixed with 4% PFA for 10 min on ice, washed and permeabilized using 0.1% Saponin (Sigma-Aldrich) in PBS with 10% FCS (SAP). Cells were incubated with primary antibody or isotype for 30 min on ice. Cells were washed three time with SAP and incubated with secondary antibody for 30 min on ice. Cells were washed again three times with SAP and analysed. Antibodies used were: anti β-III-tubulin (Chemicon) 1:100, anti GFAP (Chemicon) 1:100 and isotype mouse IgG1 (Sigma) 1:20. Secondary antibody was goat anti-mouse PE 1:100 (Dianova). To quantify DNA fragmentation, cells detached with trypsin were centrifuged, washed and fixed with 70% ethanol at −20° C. for 1 h. Fixed cells were resuspended in a hypotonic lysis buffer (0.1% sodium citrate and 0.1% Triton X-100) containing […] of propidium iodide, incubated at 4° C. overnight. After final washings, all samples were analysed using a FACS-Calibur (Becton Dickinson) and CellQuest Software (Becton Dickinson).\nCaspase Activity Assay. Apostat Intracellular Caspase Detection Caspase Activity Assay was purchased from R&D Systems. Assay was performed according to the manufacturers' instructions and analyzed using a FACSCalibur (Becton Dickinson) and CellQuest software (Becton Dickinson)."}, "[4]": {"tested_on": "neural progenitor cells", "experiment": "GFAP expression (glial differentiation) in neural progenitor cells", "assay_type": "cell-based, mouse", "conditions": "data not shown", "experimental": "as §1\nMouse adult neural stem cell culture. NSCs were isolated as previously described^30. Briefly, 6 week old female C57BL6 mice were sacrificied and tissue from hippocampus, SVZ and spinal cord was dissected out. […]"}, "[5]": {"tested_on": "neural progenitor cells", "experiment": "Proliferation rate of neural progenitor cells", "assay_type": "cell-based, mouse", "conditions": "compared to untreated cells; data not shown", "experimental": "Mouse adult neural stem cell culture. NSCs were isolated as previously described^30. Briefly, 6 week old female C57BL6 mice were sacrificied and tissue from hippocampus, SVZ and spinal cord was dissected out. The tissue was digested, washed and cultured in Neurobasal Medium (Invitrogen Karlsruhe, Germany) supplemented with B27 (Invitrogen), Penicillin-Streptomycin (Invitrogen), Glutamax (Invitrogen), Heparin (2 μg/ml) (Sigma) and the growth factors EGF (20 ng/ml) (Promocell) and bFGF (20 ng/ml) (Promocell). After 7 days in culture neurospheres were harvested by centrifugation, dissociated using trypsin (Invitrogen) and replated. Cells were passaged once to twice weekly. Cells used for experiments were passaged between 10 to 15 times. Cells were stimulated with 10 μM Retinoic Acid or 1 activation unit of CD95L-T4. One activation unit was defined as the amount of CD95L-T4 required to increase phosphorylation of GSK3β. Activation units were defined freshly for each batch of CD95L-T4 and varied from 5-40 ng/ml."}},
  "data": [
    {"molecule": "B1", "values": [
      {"measurement": "FADD recruitment to CD95", "setting": "[1]", "result": "did not induce efficient recruitment of the adaptor molecule FADD"},
      {"measurement": "β-III-tubulin expression", "setting": "[2]", "result": "greatly increased β-III-tubulin expression"},
      {"measurement": "apoptosis", "setting": "[3]", "result": "could not detect apoptosis"},
      {"measurement": "GFAP expression", "setting": "[4]", "result": "did not change GFAP expression"},
      {"measurement": "proliferation rate", "setting": "[5]", "result": "did not lead to significant changes in the proliferation rate"}
    ]}
  ]
}
